Measurements: paper PMC9482650, “Quantitative fragmentomics allow affinity mapping of interactomes” (Nature Communications, 2022)

T1: RHPN1, Q8TCX5
T1 sequence (Q8TCX5 508-602, limits assumed, looked up): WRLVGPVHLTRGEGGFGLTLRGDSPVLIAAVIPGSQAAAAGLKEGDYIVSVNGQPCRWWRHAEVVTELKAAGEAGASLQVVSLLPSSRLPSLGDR

T2: MPDZ_5, O75970
T2 sequence (O75970 695-796, limits assumed, looked up): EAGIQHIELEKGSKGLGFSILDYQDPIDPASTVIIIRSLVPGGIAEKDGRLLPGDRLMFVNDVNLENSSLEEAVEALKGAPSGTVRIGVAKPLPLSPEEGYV

T3: FRMPD1, Q5SYB0
T3 sequence (Q5SYB0 52-145, limits assumed, looked up): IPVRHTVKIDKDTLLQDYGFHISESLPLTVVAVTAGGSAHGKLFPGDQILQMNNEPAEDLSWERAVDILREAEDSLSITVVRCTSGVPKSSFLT

T4: PDZRN3_1, Q9UPQ7
T4 sequence (Q9UPQ7 244-349, limits assumed, looked up): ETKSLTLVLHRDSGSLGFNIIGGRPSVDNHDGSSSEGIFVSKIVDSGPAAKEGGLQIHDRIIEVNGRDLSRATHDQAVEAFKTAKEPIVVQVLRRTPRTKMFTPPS

T5: ARHGAP21, Q5T5U3
T5 sequence (Q5T5U3 45-169, limits assumed, looked up): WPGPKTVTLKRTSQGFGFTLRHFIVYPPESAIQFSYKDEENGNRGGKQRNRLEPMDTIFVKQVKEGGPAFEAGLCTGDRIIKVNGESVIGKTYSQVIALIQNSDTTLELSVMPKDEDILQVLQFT

T6: MPDZ_10, O75970
T6 sequence (O75970 1624-1722, limits assumed, looked up): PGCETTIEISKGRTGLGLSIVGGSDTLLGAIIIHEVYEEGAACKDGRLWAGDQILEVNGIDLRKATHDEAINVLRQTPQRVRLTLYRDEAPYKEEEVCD

T7: MPP7, Q5T2T1
T7 sequence (Q5T2T1 134-230, limits assumed, looked up): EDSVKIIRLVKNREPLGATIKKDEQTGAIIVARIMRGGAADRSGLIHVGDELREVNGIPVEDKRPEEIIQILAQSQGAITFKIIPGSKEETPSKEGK

T8: DFNB31_2, Q9P202
T8 sequence (Q9P202 274-371, limits assumed, looked up): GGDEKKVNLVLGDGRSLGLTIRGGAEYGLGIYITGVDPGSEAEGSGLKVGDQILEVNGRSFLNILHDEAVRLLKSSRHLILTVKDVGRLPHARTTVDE

T9: HTRA3, P83110
T9 sequence (P83110 354-453, limits assumed, looked up): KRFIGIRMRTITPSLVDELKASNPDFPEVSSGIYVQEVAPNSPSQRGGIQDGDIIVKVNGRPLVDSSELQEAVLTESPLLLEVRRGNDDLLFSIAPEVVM

T10: LRRC7, Q96NW7
T10 sequence (Q96NW7 1440-1537, limits assumed, looked up): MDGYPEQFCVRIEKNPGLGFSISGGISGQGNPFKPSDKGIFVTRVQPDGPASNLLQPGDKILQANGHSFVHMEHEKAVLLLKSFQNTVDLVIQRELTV

T11: SNTB1, Q13884
T11 sequence (Q13884 107-205, limits assumed, looked up): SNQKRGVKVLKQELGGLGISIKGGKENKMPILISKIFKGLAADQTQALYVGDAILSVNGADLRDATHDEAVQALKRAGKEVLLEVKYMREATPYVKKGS


Key:
Assay in all cases: holdup assay
Set-up in all cases: key: below the threshold = too weak to quantify, mostly under pKd 3.1 to 4
Settings in all cases: plain residues with an end cap or a label only (N-terminal biotin on a linker: ado-ado)
DLG4_1, P78352 = target: DLG4_1, P78352
IL16_1, Q14005 = target: IL16_1, Q14005
TJP1_2, Q07157 = target: TJP1_2, Q07157
PDLIM1, O00151 = target: PDLIM1, O00151
RHPN1, Q8TCX5 = target: T1, RHPN1, Q8TCX5
MPDZ_5, O75970 = target: T2, MPDZ_5, O75970
SCRIB_3, Q14160 = target: SCRIB_3, Q14160
FRMPD1, Q5SYB0 = target: T3, FRMPD1, Q5SYB0
GRIP2_6, Q9C0E4 = target: GRIP2_6, Q9C0E4
DLG2_3, Q15700 = target: DLG2_3, Q15700
PDZRN3_1, Q9UPQ7 = target: T4, PDZRN3_1, Q9UPQ7
SCRIB_1, Q14160 = target: SCRIB_1, Q14160
GORASP2, Q9H8Y8 = target: GORASP2, Q9H8Y8
ARHGAP21, Q5T5U3 = target: T5, ARHGAP21, Q5T5U3
Inadl_4, Q8NI35 = target: Inadl_4, Q8NI35
Inadl_1, Q8NI35 = target: Inadl_1, Q8NI35
MPDZ_10, O75970 = target: T6, MPDZ_10, O75970
MPP7, Q5T2T1 = target: T7, MPP7, Q5T2T1
DFNB31_2, Q9P202 = target: T8, DFNB31_2, Q9P202
FRMPD2_2, Q68DX3 = target: FRMPD2_2, Q68DX3
GORASP1, Q9BQQ3 = target: GORASP1, Q9BQQ3
HTRA3, P83110 = target: T9, HTRA3, P83110
LRRC7, Q96NW7 = target: T10, LRRC7, Q96NW7
Inadl_3, Q8NI35 = target: Inadl_3, Q8NI35
NHERF4_4, Q86UT5 = target: NHERF4_4, Q86UT5
SNTB1, Q13884 = target: T11, SNTB1, Q13884
NHERF4_1, Q86UT5-2 = target: NHERF4_1, Q86UT5-2
NHERF4_1, Q86UT5-2, sequence (Q86UT5 other isoform, or with tags, fused parts or gaps): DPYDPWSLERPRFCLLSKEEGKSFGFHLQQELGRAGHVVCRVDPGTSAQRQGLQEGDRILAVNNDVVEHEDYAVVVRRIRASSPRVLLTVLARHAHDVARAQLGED

GORASP1, Q9BQQ3, sequence (Q9BQQ3 1-208): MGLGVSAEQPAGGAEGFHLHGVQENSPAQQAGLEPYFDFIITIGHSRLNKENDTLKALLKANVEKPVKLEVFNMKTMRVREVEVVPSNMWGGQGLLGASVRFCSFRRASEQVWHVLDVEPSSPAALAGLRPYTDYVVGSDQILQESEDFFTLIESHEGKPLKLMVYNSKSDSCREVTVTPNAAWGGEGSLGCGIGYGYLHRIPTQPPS
NHERF4_4, Q86UT5, sequence (Q86UT5 464-550): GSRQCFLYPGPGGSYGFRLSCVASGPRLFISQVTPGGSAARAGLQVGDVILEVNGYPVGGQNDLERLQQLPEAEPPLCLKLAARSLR
GRIP2_6, Q9C0E4, sequence (Q9C0E4 648-740): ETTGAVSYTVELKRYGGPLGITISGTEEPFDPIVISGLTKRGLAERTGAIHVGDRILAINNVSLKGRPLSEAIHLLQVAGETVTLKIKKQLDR
SCRIB_1, Q14160, sequence (Q14160 718-814): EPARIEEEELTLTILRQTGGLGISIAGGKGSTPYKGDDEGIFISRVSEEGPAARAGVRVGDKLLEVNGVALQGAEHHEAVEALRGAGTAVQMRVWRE
FRMPD2_2, Q68DX3, sequence (Q68DX3 944-1038): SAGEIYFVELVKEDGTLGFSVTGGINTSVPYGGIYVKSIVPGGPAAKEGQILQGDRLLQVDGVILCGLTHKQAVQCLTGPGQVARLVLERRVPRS
DLG4_1, P78352, sequence (P78352 62-152): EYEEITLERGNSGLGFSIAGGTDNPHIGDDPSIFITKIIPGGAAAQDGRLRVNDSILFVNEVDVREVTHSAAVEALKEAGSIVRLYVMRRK
Inadl_4, Q8NI35, sequence (Q8NI35 547-651): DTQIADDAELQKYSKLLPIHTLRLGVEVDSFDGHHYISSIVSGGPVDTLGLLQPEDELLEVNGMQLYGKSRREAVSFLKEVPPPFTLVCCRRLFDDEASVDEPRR
Inadl_3, Q8NI35, sequence (Q8NI35 359-469): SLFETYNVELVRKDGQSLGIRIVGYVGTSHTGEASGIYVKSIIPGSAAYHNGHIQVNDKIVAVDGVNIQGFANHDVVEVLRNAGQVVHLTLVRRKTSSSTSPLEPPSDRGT
Inadl_1, Q8NI35, sequence (Q8NI35 113-229): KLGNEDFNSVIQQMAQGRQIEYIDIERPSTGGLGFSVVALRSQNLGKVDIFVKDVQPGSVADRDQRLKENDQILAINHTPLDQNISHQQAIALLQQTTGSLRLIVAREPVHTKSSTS
IL16_1, Q14005, sequence (Q14005 210-306): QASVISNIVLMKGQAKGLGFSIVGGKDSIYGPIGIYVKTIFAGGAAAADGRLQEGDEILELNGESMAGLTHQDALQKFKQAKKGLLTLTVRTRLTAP
SCRIB_3, Q14160, sequence (Q14160 999-1103): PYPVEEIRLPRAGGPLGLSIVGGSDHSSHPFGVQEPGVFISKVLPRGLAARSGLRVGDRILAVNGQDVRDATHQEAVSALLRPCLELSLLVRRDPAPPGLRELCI
TJP1_2, Q07157, sequence (Q07157 181-274): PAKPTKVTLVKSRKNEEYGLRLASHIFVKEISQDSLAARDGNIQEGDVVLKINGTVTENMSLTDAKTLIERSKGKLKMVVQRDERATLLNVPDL
PDLIM1, O00151, sequence (O00151 1-87): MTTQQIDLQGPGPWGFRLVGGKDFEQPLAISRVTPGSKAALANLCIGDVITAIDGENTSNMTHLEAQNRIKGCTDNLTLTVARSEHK

Binder | pKd (DLG4_1, P78352) | pKd (IL16_1, Q14005) | pKd (TJP1_2, Q07157) | pKd (PDLIM1, O00151) | pKd (RHPN1, Q8TCX5) | pKd (MPDZ_5, O75970) | pKd (SCRIB_3, Q14160) | pKd (FRMPD1, Q5SYB0) | pKd (GRIP2_6, Q9C0E4) | pKd (DLG2_3, Q15700) | pKd (PDZRN3_1, Q9UPQ7) | pKd (SCRIB_1, Q14160) | pKd (GORASP2, Q9H8Y8) | pKd (ARHGAP21, Q5T5U3) | pKd (Inadl_4, Q8NI35) | pKd (Inadl_1, Q8NI35) | pKd (MPDZ_10, O75970) | pKd (MPP7, Q5T2T1) | pKd (DFNB31_2, Q9P202) | pKd (FRMPD2_2, Q68DX3) | other results
VCMGDHWFDV [PRKN, O60260] | below the threshold | below the threshold | below the threshold | 3.83 | below the threshold | below the threshold | 3.98 | below the threshold | 3.79 | below the threshold | below the threshold | 3.55 | 4.77 | 4.08 | below the threshold | below the threshold | below the threshold | 4.85 | below the threshold | below the threshold | pKd (GORASP1, Q9BQQ3): 4.06; pKd (HTRA3, P83110): 4.49; pKd (LRRC7, Q96NW7): 3.75; pKd (Inadl_3, Q8NI35): 4.9; pKd (NHERF4_4, Q86UT5): 4.3; pKd (SNTB1, Q13884): below the threshold; pKd (NHERF4_1, Q86UT5-2): below the threshold
HLSTRQGTCV [ATRNL1, Q5VV63] | 4.33 | 3.63 | below the threshold | below the threshold | 3.65 | 3.66 | 4.13 | below the threshold | below the threshold | 4.19 | 3.97 | 3.66 | 4.15 | below the threshold | below the threshold | below the threshold | 3.75 | below the threshold | below the threshold | below the threshold | pKd (GORASP1, Q9BQQ3): 3.47; pKd (HTRA3, P83110): 4.45; pKd (LRRC7, Q96NW7): 3.63; pKd (Inadl_3, Q8NI35): below the threshold; pKd (NHERF4_4, Q86UT5): 3.94; pKd (SNTB1, Q13884): 3.99; pKd (NHERF4_1, Q86UT5-2): below the threshold
HYPASPDSWV [CTNND2, Q9UQB3] | 4.37 | 4.24 | 4.19 | 4.06 | 4.42 | below the threshold | 4.4 | below the threshold | below the threshold | below the threshold | 3.83 | 4.06 | 4.51 | below the threshold | below the threshold | below the threshold | below the threshold | below the threshold | below the threshold | 4.54 | pKd (GORASP1, Q9BQQ3): 3.93; pKd (HTRA3, P83110): 5.66; pKd (LRRC7, Q96NW7): 4.97; pKd (Inadl_3, Q8NI35): below the threshold; pKd (NHERF4_4, Q86UT5): below the threshold; pKd (SNTB1, Q13884): 4.23; pKd (NHERF4_1, Q86UT5-2): below the threshold
KLQNPNQSVV [TYRP1, P17643] | 3.91 | 3.94 | below the threshold | below the threshold | 3.77 | below the threshold | below the threshold | below the threshold | below the threshold | below the threshold | below the threshold | 3.52 | 3.73 | 3.98 | below the threshold | below the threshold | 3.54 | below the threshold | below the threshold | below the threshold | pKd (GORASP1, Q9BQQ3): 3.53; pKd (HTRA3, P83110): below the threshold; pKd (LRRC7, Q96NW7): below the threshold; pKd (Inadl_3, Q8NI35): below the threshold; pKd (NHERF4_4, Q86UT5): below the threshold; pKd (SNTB1, Q13884): 3.72; pKd (NHERF4_1, Q86UT5-2): below the threshold
QRYPGNQTTC [CCL24, O00175] | below the threshold | below the threshold | below the threshold | below the threshold | 4.2 | below the threshold | 3.64 | below the threshold | below the threshold | 3.87 | below the threshold | 3.92 | below the threshold | below the threshold | below the threshold | below the threshold | below the threshold | below the threshold | below the threshold | below the threshold | pKd (GORASP1, Q9BQQ3): below the threshold; pKd (HTRA3, P83110): 3.74; pKd (LRRC7, Q96NW7): below the threshold; pKd (Inadl_3, Q8NI35): below the threshold; pKd (NHERF4_4, Q86UT5): below the threshold; pKd (SNTB1, Q13884): 3.6; pKd (NHERF4_1, Q86UT5-2): below the threshold
